The assay concerns the target human recombinant Hsp60 (human), P10809. Put plainly: cryo-EM structure; purified LAP mixed with Hsp60 at 2:1, incubated 4 h at 4°C; Titan Krios 300 kV with K3 detector, cryoSPARC; LAP-Hsp60 map refined in C1, Hsp60 alone in C7, LAP dimer in C2. Particulars: remark: other sources report otherwise.

B1: human recombinant Hsp60, P10809 27-573 (natural protein)
chain: AKDVKFGADARALMLQGVDLLADAVAVTMGPKGRTVIIEQSWGSPKVTKDGVTVAKSIDLKDKYKNIGAKLVQDVANNTNEEAGDGTTTATVLARSIAKEGFEKISKGANPVEIRRGVMLAVDAVIAELKKQSKPVTTPEEIAQVATISANGDKEIGNIISDAMKKVGRKGVITVKDGKTLNDELEIIEGMKFDRGYISPYFINTSKGQKCEFQDAYVLLSEKKISSIQSIVPALEIANAHRKPLVIIAEDVDGEALSTLVLNRLKVGLQVVAVKAPGFGDNRKNQLKDMAIATGGAVFGEEGLTLNLEDVQPHDLGKVGEVIVTKDDAMLLKGKGDKAQIEKRIQEIIEQLDVTTSEYEKEKLNERLAKLSDGVAVLKVGGTSDVEVNEKKDRVTDALNATRAAVEEGIVLGGGCALLRCIPALDSLTPANEDQKIGIEIIKRTLKIPAMTIAKNAGVEGSLIVEKIMQSSSEVGYDAMAGDFVNMVEKGIIDPTKVVRTALLDAAGVASLLTTAEVVVTEIPKEEKDPGMGAMGGMGGGMGGGMF
A word on the stoichiometry N: it is a count of units in the complex or per binding partner. B1: the stoichiometry N turned out to be 7.

These data come from article PMC12136220.
